Assay: yeast display, Sf9 membrane polyspecificity reagent, FACS + sequencing; frameworks hold sequencing errors
Outline: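 In a synthetic yeast display library (Saccharomyces cerevisiae BJ5465), nanobody expression was induced with galactose for 36–48 hours. FACS gates were set low and high (top ~1%) using anti-HA fluorescence for expression and streptavidin fluorescence for binding of the Sf9 membrane reagent. Each polyreactivity label is drawn from the gate of origin.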

Row | Sequence | polyreactivity (PSR sort gate)
1 | QVQLVESGGGLVQAGGSLRLSCAASGKIFSYNAMGWYRQAPGKERELVAAISRSGGSTYYADSVKGRFTISRDNAKNTVYLQMNSLKPEDTAVYYCAADWRGRKYDYWGQGTQVTVSS | high polyreactivity
2 | QVQLVESGGGLVQAGGSLRLSCAASGLIFADYVMGWYRQAPGKERELVATINQGGGSTYYADSVKGRFTISRDNAKNTVYLQMNSLIPEDTAVYYCAATWALLYAIFESYDYWGQGTQVTVSS | low polyreactivity
3 | QVQLVESGGGLVQAGGSLRLSCAASGLIFAKYAMGGYRQAPGKERELVAAISYSGGSTFYADSVKGRFTISRDNAKNTVYLQMNSLKPEDTAVYYCAARDSRVGYYWFVRKEYYYWGQGTQVTVSS | high polyreactivity
4 | QVQLVESGGGLVQAGGSLRLSCAASGLIFANNAMGWYRQAPGKERELVAVISRGGRTYYADSVKGRFTISRDNAKNTVYLQMNSLKPEDTAVYYCAKPVLVGLGSRYDYWGQGTQVTVSS | high polyreactivity
5 | QVQLVESGGGLVQAGGSLRLSCAASGLIFARYVMGWSRQAPGKERELVADIDKGGGSTYYADSVKGRFTISRDNAKNTVYLQMNSLKPEDTAVYYCNADFDGWWWDDYWGQGTQVTVSS | high polyreactivity
6 | QVQLVESGGGLVQAGGSLRLSCAASGLIFASYAMGWYRQAPGKERELVAAISWSGGSTYYADSVKGRFTISRDNAKNTVYLQMNSLKPEDTAVYYCAAKRYAYGSLDYWGQGTQVTVSS | high polyreactivity
7 | QVQLVESGGGLVQAGGSLRLSCAASGLIFATNAMGWYRQAPGKERELVATITRSAGRTYYADSVKGRFTISRDNAKNPVYLQMNSLKPEDTAVYYCAASYWDTEPGYREYDYWGQGTQVTVSS | low polyreactivity
8 | QVQLVESGGGLVQAGGSLRLSCAASGLIFATYAMGWYRQAPGKERELVAAISIRGGITYYADSVKGRFTISRDNAKNTVYLQMNSLKPEDTAVYYCAARYSRAGISHRMDYWGQGTQVTVSS | high polyreactivity
9 | QVQLVESGGGLVQAGGSLRLSCAASGLIFAVYTMGWYRQAPGKERELVAAITRRSTRTYYADSVKGRFTISRDNAKNTVYLQMNSLKPEDTAVYYCAADRGSSGAAFEYWGQGTQVTVSS | low polyreactivity
10 | QVQLVESGGGLVQAGGSLRLSCAASGLIFDKYAMGWYRQAPGKERELVAAITRSSGTTYYADSVKGSFTISRDNAKNTVYLQMNSLKPEDTAVYYCATDVDKSLYDYWGQGTQVTVSS | low polyreactivity
11 | QVQLVESGGGLVQAGGSLRLSCAASGLIFDSYDMGWYRQAPGKERELVAAIRRNGGSTYYADSVKGRFTISRDNAKNTVYLQMNSLKPEDTAVYYCAVDNSGYSGVYWVKMDYWGQGTQVTVSS | low polyreactivity
12 | QVQLVESGGGLVQAGGSLRLSCAASGLIFESNAMGWYRQAPGKERELVAAITTNGGSTYYADSVKGRFTISRDNAKNTVYFQMNSLKPEVTAVYYCAALGLHQVIEYDYWGQGTQVTVSS | low polyreactivity
13 | QVQLVESGGGLVQAGGSLRLSCAASGLIFESYAMGWYRQAPRKERELFAAITRSGARTYYADSVKGRFSISRDNAKNTVYLQMNILKPEDTAVYYCAAAPWYFFDQYFNGISFGYYYWGQGTQLTVSS | high polyreactivity
14 | QVQLVESGGGLVQAGGSLRLSCAASGLIFEYYAMGWYRQAPGKERELVAVINWSGASTYYADSVKGRFTITRDYAKNTVYLQMNSLKPEDTAVYYCAAGVLITGLRFDYWGQGTQVTVSS | low polyreactivity
15 | QVQLVESGGGLVQAGGSLRLSCAASGLIFFTYAMGWYRQAPGKERELVATISRGGRTKYADSVKGRFTISRDNAKNTVYLQMNSLKPEDTAVSYCAAYLSRSYYAYDYWGQGTQVTVSS | high polyreactivity
16 | QVQLVESGGGLVQAGGSLRLSCAASGLIFGDYAMGWYRPAPGKERELVAAITGSVTRTYYADSVKGRFTISRDNAKNTVYLQMNSLKPEDTAVYYCATRVHYIGFYDYDYWGQGTQVTVSS | low polyreactivity
17 | QVQLVESGGGLVQAGGSLRLSCAASGLIFGGYAMGWYRQAPGKERELVAAIYWDDGDTYYADSVKGRFTISRDNAKNTVYLQMNSLKTEDTAVYYCNAAGALIFGEGYYVEYDYDYWGQGTQVTVSS | low polyreactivity
18 | QVQLVESGGGLVQAGGSLRLSCAASGLIFGGYAMGWYRQAPGKERELVATITSGGSTNYADSVKGRFTISRDNAKNTVYLQMNSLKPEDTAVYYCAAAERQGFPSVYPTYQWDYDYWGQGTQVTVSS | low polyreactivity
19 | QVQLVESGGGLVQAGGSLRLSCAASGLIFGNNAMGWYRQAPGKERELVAGIDWSGGSTYYADSVKGRFTISRDNAKNTVDLQMNSLKPEDTAVYYCNAALYVSGHYPNDYWGQGTQVTVSS | low polyreactivity
20 | QVQLVESGGGLVQAGGSLRLSCAASGLIFGRNAMGWYRQAPGKERELVAAISYRGGSTYYADSVKGRFTISRDNAKNTVYLQMNSLKPEDTAVYYCNRVWYAWGTGYDYWGQGTQVTVSS | high polyreactivity
21 | QVQLVESGGGLVQAGGSLRLSCAASGLIFGRYAMGWYRQAPGKERELVAAITCGTNTNYADSVKGRFTISRDNAKNTVYLQMNSLKPEDTAVYYCGKASGRCSLARGATYSVDYWGQGTQVTVSS | high polyreactivity
22 | QVQLVESGGGLVQAGGSLRLSCAASGLIFGSYAMGWSRQAPGKERELVAAISRSGGSTYYADSVKGRFTISRDNAKNTVYLQMNSLKPEDTAVYYCAARGYPLGIGRIKRNYWGQGTQVTVAS | high polyreactivity

Row | Sequence | polyreactivity (PSR sort gate)
23 | QVQLVESGGGLVQAGGSLRLSCAASGLIFGSYAMGWYRQAPGKEMELVAAISWSGGSTNYADSVKGRFTISRDNSKNTVDLQMNSLKPEDTAVYYCAARGYPLGIGRIKRNYWGQGTQVTVSS | high polyreactivity
24 | QVQLVESGGGLVQAGGSLRLSCAASGLIFGSYVMGWYSQAPGKERELVAAISTSGGRTYYADSVKGRFTISRDNATNTVYLQMNSLKPEDTAVYFCAASRWHGYNYWGQGTQVTVSS | high polyreactivity
25 | QVQLVESGGGLVQAGGSLRLSCAASGLIFGVNAMGWYRQAPGKERELVAAISRDSDTNYADSVKGRFTISRDNAKNTDYLQMNSLKPEDTAVYYCNAYSEWPVPSPPRSQSLDYWGQGTQVTVSS | low polyreactivity
26 | QVQLVESGGGLVQAGGSLRLSCAASGLIFGWYAMGWYRQAPGKERELVAGISGSGGITYYADSVKGRFTISRDNAKNTVYLQMNSLKPEDTAVYYCAARPGYVHIDFDYWGQGTQVTVSS | low polyreactivity
27 | QVQLVESGGGLVQAGGSLRLSCAASGLIFGYNAMGWYRQAPGKEREFVAGISVIDGRTYYADSVKGRFTISRDNAKNTVYLQMNSLIPEDTAVYYCAADRWYKYYFLTYGYWGQGTQVTVSS | low polyreactivity
28 | QVQLVESGGGLVQAGGSLRLSCAASGLIFGYNAMGWYRQAPGKEREFVAGISVIDGRTYYADSVKGRFTISRDNAKNTVYLQMNSLKPEDTAVYYCAADRWYKYYFLTYGYWGQGTQVTVSS | low polyreactivity
29 | QVQLVESGGGLVQAGGSLRLSCAASGLIFGYNAMGWYRQAPGKERELVAAISSSGGSTSYADSVKGRFTISRDNAKNTVYLQMNSLKPEDTAVYYCAAKPGRYADYDYNSWGQGTQVTVSS | low polyreactivity
30 | QVQLVESGGGLVQAGGSLRLSCAASGLIFGYNAMGWYRQAPGKERELVAAISWSGGRTYYADSVKGRFTISRDNAKNTVYLQMNSLKPEDTAVYYCAAVVRHSYFRDDHWGQGTQVTVSS | high polyreactivity
31 | QVQLVESGGGLVQAGGSLRLSCAASGLIFGYYAMGWYRQAPGKERELVAAISSSGTRTYYADSVKGRFTISRDNAMNTVYLQMNSLKPEDTAVYYCNADSYGSRYEYWGQGTQVTVSS | high polyreactivity
32 | QVQLVESGGGLVQAGGSLRLSCAASGLIFHYYAMGWYRQAPGKERELVAAISSGGSTNYADSVKGRFTISRDNAKNTVYLQMNSLKPLDTAVYYCAARSGARRGNVYVYYEYYYWGQGTQVTVSS | low polyreactivity
33 | QVQLVESGGGLVQAGGSLRLSCAASGLIFITYAMGWYIQAPGKERELVATITLRGGSTYYADSVKGRFTISRDNAKNTVYLQMNSLKPEDTAVYYCAADVGYWGRSRGYPSDDYDYWGQGTQVTVSS | low polyreactivity
34 | QVQLVESGGGLVQAGGSLRLSCAASGLIFKFYAMGWYRQAPGKERELVARISSCGGSTYYADSVKGRFTMSRDNAKNTVYLQMNSLKPEDTAVYYCAAGDYYGDRYARSSIFSYYYWGQGTQVTVSS | high polyreactivity
35 | QVQLVESGGGLVQAGGSLRLSCAASGLIFKSYAMGWYRQAPGKERELVAAITWSGGRTYYADSVKGRFTISRDNAKNTVYLQMNSLKPEDTAVYYCAGREYLPPYYYWGQGTQVTVSS | high polyreactivity
36 | QVQLVESGGGLVQAGGSLRLSCAASGLIFKYYAMGWYRPAPGKERELVAAITGRGGSTYYADSVKGRFTISRDNAMNTVYLQMNSLKPEDTAVYYCARRRTYSFNPVTYDWGQGTQVTVSS | high polyreactivity
37 | QVQLVESGGGLVQAGGSLRLSCAASGLIFLGYAMGWYRQAPGKERELVASIRTGGSTSYADSVKGRFTISRDNAKNTVYLQMNSLKPEDTAVYYCNARDYASGTEGDYWGQGTQVTVSS | low polyreactivity
38 | QVQLVESGGGLVQAGGSLRLSCAASGLIFLYNAMGWYRQAPGKERELVAAISRSGGSTYYADSVKGRFTISRDNAKNTVYLQMNSLKPEDTAVYYCNARWPLGVSRGGMGYWGQGTQVTVSS | high polyreactivity
39 | QVQLVESGGGLVQAGGSLRLSCAASGLIFNEYAMGWYRQAPGKERELVAAISWSDGGTSYADSVKGRFTISRDNAKNTVYLQMNSLKPEDTAVYYCAKGPRGAHRTHGAYVEMEYWGQGTQVTVSS | low polyreactivity
40 | QVQLVESGGGLVQAGGSLRLSCAASGLIFNKNSMGWYRQAPGKERELVASNTTTGARTYYADSVKGRFTISRDNAKNTVYLQMNSLKPEDTAFYYCASVHWGWRSITGGVGYDSWGQGTQVTVSS | high polyreactivity
41 | QVQLVESGGGLVQAGGSLRLSCAASGLIFNNNAMGWYRQAPGKERELVAAISYRGGSTYYADSVKGRFTISRDNAKNTVYLQMNSLKPEDTAVYYCAARKISKYDYWGQGTQVTVSS | high polyreactivity
42 | QVQLVESGGGLVQAGGSLRLSCAASGLIFNRYTMGWYRQAPGKERELVAAINRSGGNTYYADSVKGRFTISRDNAKNTVYLQMNSLKPEDTAVYYCNADYFSRTGYKYDYWGQGTQVTVSS | high polyreactivity
43 | QVQLVESGGGLVQAGGSLRLSCAASGLIFNVNVMGWYRQAPGKERELVAAIDYSGGSTYYADSVKGRFTISRDNAKNTVFLQMNSLKPEDTAVYYCSADDAAWPYSWWGFDYWGQGTQVTVSS | low polyreactivity
